Test results taken from patent US5573928A, “Porcine vasoactive intestinal peptide receptor and DNA” (Eli Lilly and Company, priority 1993, dated 1996).
Where no end group is shown, it is not given here.

Molecular target: T1, pVIP receptor (Sus scrofa, UniProt Q28992)
T1 sequence (Q28992 32-458): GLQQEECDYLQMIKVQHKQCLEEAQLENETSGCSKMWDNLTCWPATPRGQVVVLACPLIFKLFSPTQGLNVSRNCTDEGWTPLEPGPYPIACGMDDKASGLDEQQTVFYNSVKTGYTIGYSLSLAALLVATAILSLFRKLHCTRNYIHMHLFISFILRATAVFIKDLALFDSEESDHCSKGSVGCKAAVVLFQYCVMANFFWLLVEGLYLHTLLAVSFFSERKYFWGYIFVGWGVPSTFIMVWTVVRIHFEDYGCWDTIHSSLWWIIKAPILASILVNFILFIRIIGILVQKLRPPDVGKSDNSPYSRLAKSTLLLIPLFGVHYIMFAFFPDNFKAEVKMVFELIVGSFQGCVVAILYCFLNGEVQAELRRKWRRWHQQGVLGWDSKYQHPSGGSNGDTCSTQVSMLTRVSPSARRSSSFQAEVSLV
Assay: cAMP assay in 293/VIPR cells expressing the pVIP receptor
Type: cell-based, porcine
Conditions: for intracellular [cAMP]: 293/VIPR cells, 45 min at 37° C.
Description: Briefly, a double stranded counterpart to Sequence ID#i, externally modified to incorporate convenient restriction sites, was integrated into the pRc/CMV vector and recombinantly expressed in 293 cells. The cDNA transcript included the signal peptide region of the native transcript facilitating proper orientation and integration into the transfected cell membrane. […] The cAMP level was also measured upon exposure of the transfected cells in response to the addition of secretin, and GHRH, two peptides closely related to VIP.
After removing the solution, 0.5 ml of 60% ethanol was added to lyse the cells in each well. An aliquot was taken, dried in vacUo, and the level of cAMP was determined.
Cells were washed twice with the incubation buffer (Dulbecco's modified Eagle's medium containing 0.5 mM 1-methyl-3-isobutylxanthine and 1 mg/ml BSA). […] After removing the buffer, 0.5 ml of 60% ethanol was added to lyse the cells in each well.

Substance | intracellular [cAMP] (hormone concentration 10^-6 M) [pmoles/10^5 cells] | intracellular [cAMP] (hormone concentration 10^-7 M) [pmoles/10^5 cells] | intracellular [cAMP] (hormone concentration 10^-8 M) [pmoles/10^5 cells] | intracellular [cAMP] (hormone concentration 10^-9 M) [pmoles/10^5 cells] | intracellular [cAMP] (hormone concentration 10^-10 M) [pmoles/10^5 cells] | intracellular [cAMP] (hormone concentration 10^-11 M) [pmoles/10^5 cells] | intracellular cAMP levels upon exposure (in words) (transfected 293 cells expressing the protein of Sequence ID#2)
GHRH: growth hormone-releasing hormone, a peptide closely related to VIP | 400 | 404 | 400 | 105 | < 10 | < 10 | 
porcine secretin (HSDGTFTSELSRLRDSARLQRLLQGLV; ends and bridges not checked; UniProt P63298 33-59, looked up) [peptide hormone closely related to VIP, commercially available from Peninsula Laboratories] | 440 | 240 | 185 | 28 | < 10 | < 10 | 
porcine vasoactive intestinal polypeptide [VIP] | 420 | 440 | 404 | 64 | 15 | < 10 | intracellular increase in cAMP levels
